B1: Full length UL16 on transfected 293 EBNA cells (other)
chain: VDLGSKSSNSTCRLNVTELASIHPGETWTLHGMCISICYYENVTEDEIIGVAFTWQHNESVVDLWLYQNDTVIRNFSDITTNILQDGLKMRTVPVTKLYTSRMVTNLTVGRYDCLRCENGTTKIIERLYVRLGSLYPRPPGSGLAKHPSVSADEELSATLARDIVLVSAITLFFFLLALRIPQRLCQRLRIRLPHRYQRLRTED
notes: whole, on cells; also called UL16 FL
B2: human ULBP2-Fc fusion polypeptide (Fc fusion)
chain: WSRAGRADPHSLCYDITVIPKFRPGPRWCAVQGQVDEKTFLHYDCGNKTVTPVSPLGKKLNVTTAWKAQNPVLREVVDILTEQLRDIQLENYTPKEPLTLQARMSCEQKAEGHSSGSWQFSFDGQIFLLFDSEKRMWTTVHPGARKMKEKWENDKVVAMSFHYFSMGDCIGWLEDFLMGMDSTLEPSAGAPLAMSSGTTQLRRSCDKTHTCPPCPAPEAEGAPSVFLFPPKPKDTLMISRTPEVTCVVVDVSHEDPEVKFNWYVDGVEVHNAKTKPREEQYNSTYRVVSVLTVLHQDWLNGKEYKCKVSNKALPAPIEKTISKAKGQPREPQVYTLPPSRDELTKNQVSLTCLVKGFYPSDIAVEWESNGQPENNYKTTPPVLDSDGSFFLYSKLTVDKSRWQQGNVFSCSVMHEALHNHYTQKSLSLSPGK
notes: ULBP-2 extracellular domain (residues 1-223) fused to the human IgG1 Fc mutein
B3: ULBP3/Fc (Fc fusion)
chain: DAHSLWYNFTIIHLPRHGQQWCEVQSQVDQKNFLSYDCGSDKVLSMGHLEEQLYATDAWGKQLEMLREVGQRLRLELADTELEDFTPSGPLTLQVRMSCECEADGYIRGSWQFSFDGRKFLLFDSNNRKWTVVHAGARRMKEKWEKDSGLTTFFKMVSMRDCKSWLRDFLMHRKKRLEPTAPPTMAPG
notes: That entry lacks the first five residues of the leader and still holds the rest of the signal peptide and the GPI signal; not shown: Fc portion of ULBP3/Fc is not described

For assay [1], the target named is human ULBP2-Fc fusion polypeptide (human). Description: flow cytometry; ULBP2/FC preincubated with excess isotype control antibody, then added to 293E cells transfected with NKG2D/Dap10; goat anti-huIg PE. In general terms: In flow cytometry, cells or beads pass a laser one at a time.
Assay [2] deals with human ULBP1-Fc fusion polypeptide (human). The assay is described as follows: flow cytometry; ULBP1/FC preincubated with excess isotype control antibody, then added to 293E cells transfected with NKG2D/Dap10; goat anti-huIg PE.
Assay [3] concerns the target PERB11/Fc. The assay is described as follows: flow cytometry; PERB11/FC preincubated with excess isotype control antibody, then added to 293E cells transfected with NKG2D/Dap10; goat anti-huIg PE.
For assay [4], the target named is ULBP3/Fc (human) (UniProt Q9BZM4). Description: flow cytometry; ULBP3/FC preincubated with excess isotype control antibody, then added to 293E cells transfected with NKG2D/Dap10; goat anti-huIg PE.
Assay [5] concerns the target FLAG tagged Dap10 alone on transfected 293 EBNA cells (UniProt Q9UBK5). The assay is described as follows: flow cytometry, transfected 293 EBNA cells, 2 µg Fc protein + goat anti-human IgG PE.
Assay [6] addresses Full length UL16 on transfected 293 EBNA cells (human cytomegalovirus) (UniProt P16757). Described as above.
The target of assay [7] is NKG2D alone on transfected 293 EBNA cells (UniProt P26718). Described as above.
Assay [8] concerns the target NKG2D/Dap10 on transfected 293E cells (UniProt P26718). The description is as above.
The target of assay [9] is T1, NKG2D/Dap10 on transfected 293E cells (UniProt P26718 1-216; Q9UBK5 19-93).
T1 construct: whole, on cells; Co-expressed on 293 EBNA (293E) cells from the pDC409 vector; also called NKG2D+FLAG tagged Dap10
T1 sequence 1: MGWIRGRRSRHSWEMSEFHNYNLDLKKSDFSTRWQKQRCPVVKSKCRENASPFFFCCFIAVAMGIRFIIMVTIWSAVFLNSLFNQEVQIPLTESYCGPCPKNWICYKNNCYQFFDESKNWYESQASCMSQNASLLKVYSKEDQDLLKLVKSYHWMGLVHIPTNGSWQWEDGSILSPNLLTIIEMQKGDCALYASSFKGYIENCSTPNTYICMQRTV
T1 sequence 2: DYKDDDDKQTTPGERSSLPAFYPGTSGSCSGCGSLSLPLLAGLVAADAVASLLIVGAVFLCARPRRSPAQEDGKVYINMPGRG
Description: flow cytometry, transfected 293 EBNA cells, M1 + sheep anti-mouse IgG PE.

Assay [10] concerns the target FLAG tagged Dap10 alone on transfected 293 EBNA cells (UniProt Q9UBK5). The assay is described as above.
The target in assay [11] is Full length UL16 on transfected 293 EBNA cells (human cytomegalovirus) (UniProt P16757). The assay is described as above.
Assay [12] has as its target NKG2D alone on transfected 293 EBNA cells (UniProt P26718). The description is as above.
In assay [13] the target is T1, NKG2D/Dap10 on transfected 293E cells. Description: flow cytometry; NKG2D/Dap10-transfected 293E cells, M1 + sheep anti-mouse IgG PE (expression control).
The target is the same in assay [14]. Described as above. The source holds these as a separate data set.
The target is the same in assay [15]. Description: flow cytometry; NKG2D/Dap10-transfected 293E cells preincubated with 25 µg ULBP1/LZ (competitor).
For assay [16] the target is unchanged. Description: flow cytometry, transfected 293 EBNA cells, 2 µg Fc protein + goat anti-human IgG PE.
Assay [17] shares this target. Description: flow cytometry; NKG2D/Dap10-transfected 293E cells preincubated with 25 µg hCD40L/LZ (control blocking protein).
The target of assay [18] is T2, MICA/Fc (UniProt Q29983 24-307).
T2 construct: not shown: Fc portion not described
T2 sequence (looked up): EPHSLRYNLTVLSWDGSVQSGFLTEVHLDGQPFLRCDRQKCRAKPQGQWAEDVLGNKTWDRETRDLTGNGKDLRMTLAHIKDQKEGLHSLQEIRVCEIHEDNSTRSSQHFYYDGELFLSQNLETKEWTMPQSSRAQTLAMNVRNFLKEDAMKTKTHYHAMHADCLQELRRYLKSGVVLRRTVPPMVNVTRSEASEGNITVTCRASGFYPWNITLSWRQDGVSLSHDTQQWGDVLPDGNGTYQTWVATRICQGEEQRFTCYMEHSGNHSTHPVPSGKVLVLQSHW
The assay is described as follows: flow cytometry on 293 EBNA cells transfected with full length UL16.

Assay [19] deals with T3, NKG2D alone on transfected 293 EBNA cells (UniProt P26718 1-216, limits assumed).
T3 construct: whole, on cells
T3 sequence (looked up): T1 sequence 1
The assay is described as follows: flow cytometry, transfected 293 EBNA cells, 2 µg Fc protein + goat anti-human IgG PE.

Assay [20] deals with B1. The description is as above.
Assay [21] concerns the target T4, FLAG tagged Dap10 alone on transfected 293 EBNA cells (UniProt Q9UBK5 19-93).
T4 construct: whole, on cells
T4 sequence: T1 sequence 2
The assay is described as above.

The target in assay [22] is B1. The assay is described as follows: flow cytometry on 293 EBNA cells transfected with full length UL16.

Consider “antibody M90 (isotype matched control antibody)”, for which the MFI of staining protein on NKG2D/Dap10 cells after preincubation with blocking antibody in assay [1] turned out to be 192 MFI; in assay [2] it was 216 MFI; in assay [3], 167 MFI; in assay [4], 160 MFI.

For the molecule p7.5/Fc (Fc fusion), the Mean Fluorescence Intensity (MFI) is 12.1 MFI in assay [5], 12.1 MFI in [6], 9.99 MFI in assay [7] and 12.2 MFI in assay [8].

Take M1 anti-FLAG antibody: the Mean Fluorescence Intensity (MFI) was 130 MFI in [9]; 112 MFI in [10]; 11.3 MFI in assay [11]; 8.49 MFI in assay [12]; 261 MFI in [13]; 368 MFI in assay [14].

Turning to PERB11/Fc (Fc fusion), the Mean Fluorescence Intensity (MFI) in assay [15] amounted to 11 MFI; in assay [16] it was 109 MFI; in [17], 280 MFI; in assay [5], 12.7 MFI; in assay [6] it was 161 MFI; in assay [7], 10.2 MFI.

Regarding B1, the binding result in [18] was “no binding (tested: 2 µg)”.

Take B2: the “Mean Fluorescence Intensity (MFI)” value in assay [15] is 8 MFI; in assay [16], 117 MFI; in assay [19], 8.96 MFI; in assay [20], 121 MFI; in [21], 11.5 MFI; in [17], 236 MFI.

For the molecule B3, the “Mean Fluorescence Intensity (MFI)” value stood at 13 MFI in assay [15]; 102 MFI in assay [16]; 9.55 MFI in [19]; 11.9 MFI in assay [20]; 14 MFI in assay [21]; 267 MFI in [17]. Further, the binding result in [22] is “no binding (tested: 2 µg)”.

Values taken from patent US20030147847A1 (IMMUNEX, published 2003).
